The record followed here is the RNAGym collection of RNA variant scans (doi:10.1021/acssynbio.7b00057).

B1: Pistol ribozyme (parent)
chain: GGGUCGUUGUUCCAUAAUCGCGUGGAUAUGGCACGCAAGUUUCUACCGGGCACCGUAAAUGUCCGACUGGAGCCGUUCGGGCGGCUAUAAACAGACCUCAGGCCCGAAGCGUGGCGGCACCUGCCGCCGGUGGUAAAAAAGAUCGGAAGAGCACACGUCU

The variants in this series derive from B1. Description: aptazyme ON/OFF ratio, guanine; higher = stronger switching; co-transcriptional cleavage with and without guanine.
Consider GGGUCGUCUAAGGAUAAUCGCGUGGAUAUGGCACGCAAGUUUCUACCGGGCACCGUAAAUGUCCGACUGGAGCCGUUCGGGCGGCUAUAAACAGACCUCAGGCCCGAAGCGUGGCGGCACCUGCCGCCGGUGGUAAAAAAGAUCGGAAGAGCACACGUCU, for which the “aptazyme ON/OFF ratio” value was 1.16.
To GGGUCGUCUAAGAAUAAUCGCGUGGAUAUGGCACGCAAGUUUCUACCGGGCACCGUAAAUGUCCGACUGGAGCCGUUCGGGCGGCUAUAAACAGACCUCAGGCCCGAAGCGUGGCGGCACCUGCCGCCGGUGGUAAAAAAGAUCGGAAGAGCACACGUCU belongs 1.2; to GGGUCGUCUAAGUAUAAUCGCGUGGAUAUGGCACGCAAGUUUCUACCGGGCACCGUAAAUGUCCGACUGGAGCCGUUCGGGCGGCUAUAAACAGACCUCAGGCCCGAAGCGUGGCGGCACCUGCCGCCGGUGGUAAAAAAGAUCGGAAGAGCACACGUCU, 1.21; to GGGUCGUCUAAACAUAAUCGCGUGGAUAUGGCACGCAAGUUUCUACCGGGCACCGUAAAUGUCCGACUGGAGCCGUUCGGGCGGCUAUAAACAGACCUCAGGCCCGAAGCGUGGCGGCACCUGCCGCCGGUGGUAAAAAAGAUCGGAAGAGCACACGUCU, 1.39.
To GGGUCGUCUAAGCAUAAUCGCGUGGAUAUGGCACGCAAGUUUCUACCGGGCACCGUAAAUGUCCGACUGGAGCCGUUCGGGCGGCUAUAAACAGACCUCAGGCCCGAAGCGUGGCGGCACCUGCCGCCGGUGGUAAAAAAGAUCGGAAGAGCACACGUCU belongs 1.32; to GGGUCGUCUAAUCAUAAUCGCGUGGAUAUGGCACGCAAGUUUCUACCGGGCACCGUAAAUGUCCGACUGGAGCCGUUCGGGCGGCUAUAAACAGACCUCAGGCCCGAAGCGUGGCGGCACCUGCCGCCGGUGGUAAAAAAGAUCGGAAGAGCACACGUCU, 1.48.
To GGGUCGUCUAAAUAUAAUCGCGUGGAUAUGGCACGCAAGUUUCUACCGGGCACCGUAAAUGUCCGACUGGAGCCGUUCGGGCGGCUAUAAACAGACCUCAGGCCCGAAGCGUGGCGGCACCUGCCGCCGGUGGUAAAAAAGAUCGGAAGAGCACACGUCU belongs 1.33.
Turning to GGGUCGUCUAAAAAUAAUCGCGUGGAUAUGGCACGCAAGUUUCUACCGGGCACCGUAAAUGUCCGACUGGAGCCGUUCGGGCGGCUAUAAACAGACCUCAGGCCCGAAGCGUGGCGGCACCUGCCGCCGGUGGUAAAAAAGAUCGGAAGAGCACACGUCU, the “aptazyme ON/OFF ratio” value amounted to 1.28.
In the case of GGGUCGUCUAAAGAUAAUCGCGUGGAUAUGGCACGCAAGUUUCUACCGGGCACCGUAAAUGUCCGACUGGAGCCGUUCGGGCGGCUAUAAACAGACCUCAGGCCCGAAGCGUGGCGGCACCUGCCGCCGGUGGUAAAAAAGAUCGGAAGAGCACACGUCU it was 1.1; in that of GGGUCGUCUAUGAAUAAUCGCGUGGAUAUGGCACGCAAGUUUCUACCGGGCACCGUAAAUGUCCGACUGGAGCCGUUCGGGCGGCUAUAAACAGACCUCAGGCCCGAAGCGUGGCGGCACCUGCCGCCGGUGGUAAAAAAGAUCGGAAGAGCACACGUCU, 1.27; in that of GGGUCGUCUAUGGAUAAUCGCGUGGAUAUGGCACGCAAGUUUCUACCGGGCACCGUAAAUGUCCGACUGGAGCCGUUCGGGCGGCUAUAAACAGACCUCAGGCCCGAAGCGUGGCGGCACCUGCCGCCGGUGGUAAAAAAGAUCGGAAGAGCACACGUCU, 1.13.
As for GGGUCGUCUAUGUAUAAUCGCGUGGAUAUGGCACGCAAGUUUCUACCGGGCACCGUAAAUGUCCGACUGGAGCCGUUCGGGCGGCUAUAAACAGACCUCAGGCCCGAAGCGUGGCGGCACCUGCCGCCGGUGGUAAAAAAGAUCGGAAGAGCACACGUCU, the “aptazyme ON/OFF ratio” value is 1.17.
In the case of GGGUCGUCUAAUGAUAAUCGCGUGGAUAUGGCACGCAAGUUUCUACCGGGCACCGUAAAUGUCCGACUGGAGCCGUUCGGGCGGCUAUAAACAGACCUCAGGCCCGAAGCGUGGCGGCACCUGCCGCCGGUGGUAAAAAAGAUCGGAAGAGCACACGUCU it was 1.2; in that of GGGUCGUCUAAUUAUAAUCGCGUGGAUAUGGCACGCAAGUUUCUACCGGGCACCGUAAAUGUCCGACUGGAGCCGUUCGGGCGGCUAUAAACAGACCUCAGGCCCGAAGCGUGGCGGCACCUGCCGCCGGUGGUAAAAAAGAUCGGAAGAGCACACGUCU, 1.5.
To GGGUCGUCUAAUAAUAAUCGCGUGGAUAUGGCACGCAAGUUUCUACCGGGCACCGUAAAUGUCCGACUGGAGCCGUUCGGGCGGCUAUAAACAGACCUCAGGCCCGAAGCGUGGCGGCACCUGCCGCCGGUGGUAAAAAAGAUCGGAAGAGCACACGUCU belongs 1.14.
To GGGUCGUCUAUUCAUAAUCGCGUGGAUAUGGCACGCAAGUUUCUACCGGGCACCGUAAAUGUCCGACUGGAGCCGUUCGGGCGGCUAUAAACAGACCUCAGGCCCGAAGCGUGGCGGCACCUGCCGCCGGUGGUAAAAAAGAUCGGAAGAGCACACGUCU belongs 1.56; to GGGUCGUCUAUGCAUAAUCGCGUGGAUAUGGCACGCAAGUUUCUACCGGGCACCGUAAAUGUCCGACUGGAGCCGUUCGGGCGGCUAUAAACAGACCUCAGGCCCGAAGCGUGGCGGCACCUGCCGCCGGUGGUAAAAAAGAUCGGAAGAGCACACGUCU, 1.27.
Regarding GGGUCGUCUAUACAUAAUCGCGUGGAUAUGGCACGCAAGUUUCUACCGGGCACCGUAAAUGUCCGACUGGAGCCGUUCGGGCGGCUAUAAACAGACCUCAGGCCCGAAGCGUGGCGGCACCUGCCGCCGGUGGUAAAAAAGAUCGGAAGAGCACACGUCU, the “aptazyme ON/OFF ratio” value turned out to be 1.8.
